The assay addresses PB1 (influenza A/WSN/1933 polymerase subunit) (influenza A virus A/WSN/1933) (UniProt P03430). Kind of assay: cell-based or functional assay.

Chain of PB1 (influenza A/WSN/1933 polymerase subunit) (influenza A virus A/WSN/1933) (P03430 whole entry): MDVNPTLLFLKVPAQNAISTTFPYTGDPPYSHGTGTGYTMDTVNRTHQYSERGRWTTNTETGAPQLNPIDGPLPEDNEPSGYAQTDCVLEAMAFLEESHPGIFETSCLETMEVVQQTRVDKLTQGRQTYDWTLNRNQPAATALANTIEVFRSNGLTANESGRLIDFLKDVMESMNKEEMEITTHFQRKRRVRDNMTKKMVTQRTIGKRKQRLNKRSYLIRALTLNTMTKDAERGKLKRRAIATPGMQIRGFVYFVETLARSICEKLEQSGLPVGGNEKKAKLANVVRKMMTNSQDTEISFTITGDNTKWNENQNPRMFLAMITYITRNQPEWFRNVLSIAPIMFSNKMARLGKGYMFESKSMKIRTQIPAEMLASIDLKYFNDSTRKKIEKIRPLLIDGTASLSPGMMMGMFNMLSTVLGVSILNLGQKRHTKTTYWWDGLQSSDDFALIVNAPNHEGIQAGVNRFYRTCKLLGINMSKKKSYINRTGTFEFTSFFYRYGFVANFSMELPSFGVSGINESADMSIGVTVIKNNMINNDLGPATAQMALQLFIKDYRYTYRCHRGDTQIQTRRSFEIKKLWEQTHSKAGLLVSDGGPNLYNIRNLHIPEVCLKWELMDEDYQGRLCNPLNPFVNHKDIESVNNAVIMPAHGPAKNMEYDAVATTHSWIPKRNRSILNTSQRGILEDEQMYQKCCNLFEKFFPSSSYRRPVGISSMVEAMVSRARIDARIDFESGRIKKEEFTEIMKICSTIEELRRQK

For PB2 195/2223 DPR, the virus titers amounted to 50%.

As for “PB2 416/2189 DPR (from UniProt P03427 1-131)”, the virus titers amounted to 50%.

These data come from US20240228980A1.
